Assay [1] deals with ePHF tau (tau in the form of paired helical filaments, immobilized on plate) (UniProt P10636). Kind of assay: ePHF tau ELISA; […]; rep 1.
Assay [2] shares this target. Kind of assay: ePHF tau ELISA; […]; rep 2.
Assay [3] shares this target. Kind of assay: ePHF tau ELISA; 0.5 ng/mL; rep 1.
The target is the same in assay [4]. Kind of assay: ePHF tau ELISA; 0.5 ng/mL; rep 2.
Assay [5] shares this target. Kind of assay: ePHF tau ELISA; 4.1 ng/mL; rep 1.
For assay [6] the target is unchanged. Nature of the assay: ePHF tau ELISA; 4.1 ng/mL; rep 2.
Assay [7] shares this target. Kind of assay: ePHF tau ELISA; 12.3 ng/mL; rep 1.
For assay [8] the target is unchanged. Nature of the assay: ePHF tau ELISA; 12.3 ng/mL; rep 2.
Assay [9] has the same target. Kind of assay: ePHF tau ELISA; 37.0 ng/mL; rep 1.
Assay [10] shares this target. Nature of the assay: ePHF tau ELISA; 37.0 ng/mL; rep 2.
Assay [11] shares this target. Kind of assay: ePHF tau ELISA; 111.1 ng/mL; rep 1.
Assay [12] shares this target. Kind of assay: ePHF tau ELISA; 111.1 ng/mL; rep 2.
Assay [13] has the same target. Nature of the assay: ePHF tau ELISA; 333.3 ng/mL; rep 1.
The target is the same in assay [14]. Kind of assay: ePHF tau ELISA; 333.3 ng/mL; rep 2.
For assay [15] the target is unchanged. Kind of assay: ePHF tau ELISA; 1000.0 ng/mL; rep 1.
Assay [16] shares this target. Nature of the assay: ePHF tau ELISA; 1000.0 ng/mL; rep 2.
For assay [17], the target named is wild-type tau (Tau441) (human) (UniProt P10636). Nature of the assay: ELISA, Tau441 on plate; antibody at […].
For assay [18] the target is unchanged. Kind of assay: ELISA, Tau441 on plate; antibody at 4.1 ng/mL.
The target is the same in assay [19]. Kind of assay: ELISA, Tau441 on plate; antibody at 12.3 ng/mL.
Assay [20] shares this target. Kind of assay: ELISA, Tau441 on plate; antibody at 37.0 ng/mL.
Assay [21] has the same target. Nature of the assay: ELISA, Tau441 on plate; antibody at 111.1 ng/mL.
Assay [22] has the same target. Nature of the assay: ELISA, Tau441 on plate; antibody at 333.3 ng/mL.
Assay [23] has the same target. Kind of assay: ELISA, Tau441 on plate; antibody at 1000.0 ng/mL.
Assay [24] shares this target. Kind of assay: ELISA, Tau441 on plate; antibody at 0.0 ng/mL [sic].

Chain of wild-type tau (Tau441) (human) (P10636 other isoform, or with tags, fused parts or gaps limits assumed): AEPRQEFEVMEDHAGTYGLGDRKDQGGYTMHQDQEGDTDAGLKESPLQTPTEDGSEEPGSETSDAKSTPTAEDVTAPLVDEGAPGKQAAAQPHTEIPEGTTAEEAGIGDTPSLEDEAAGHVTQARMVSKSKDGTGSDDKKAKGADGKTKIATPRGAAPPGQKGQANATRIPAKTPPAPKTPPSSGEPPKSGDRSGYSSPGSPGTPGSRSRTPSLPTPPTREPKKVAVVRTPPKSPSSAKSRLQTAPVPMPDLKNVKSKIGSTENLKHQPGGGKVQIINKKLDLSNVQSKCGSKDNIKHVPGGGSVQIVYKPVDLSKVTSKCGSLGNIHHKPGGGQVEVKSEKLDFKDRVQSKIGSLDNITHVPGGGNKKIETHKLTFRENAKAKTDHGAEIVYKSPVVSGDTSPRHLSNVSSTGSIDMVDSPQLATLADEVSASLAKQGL
Chain of ePHF tau (tau in the form of paired helical filaments, immobilized on plate) (P10636 other isoform, or with tags, fused parts or gaps limits assumed): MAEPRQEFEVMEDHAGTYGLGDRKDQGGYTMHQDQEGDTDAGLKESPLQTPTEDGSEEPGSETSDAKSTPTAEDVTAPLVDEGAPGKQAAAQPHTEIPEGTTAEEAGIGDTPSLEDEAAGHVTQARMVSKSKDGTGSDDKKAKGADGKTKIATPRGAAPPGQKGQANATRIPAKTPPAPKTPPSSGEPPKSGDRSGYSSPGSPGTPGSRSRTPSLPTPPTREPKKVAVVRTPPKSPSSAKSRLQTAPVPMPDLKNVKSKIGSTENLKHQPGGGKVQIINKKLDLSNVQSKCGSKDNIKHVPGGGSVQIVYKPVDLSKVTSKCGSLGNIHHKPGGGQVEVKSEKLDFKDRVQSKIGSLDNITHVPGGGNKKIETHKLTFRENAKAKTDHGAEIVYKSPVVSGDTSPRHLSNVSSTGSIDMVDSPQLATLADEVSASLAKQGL

Turning to “Tau-13 (BioLegend monoclonal murine anti-tau, 20-35; cat #835201) (antibody)”, the OD450 was determined as 0.6 in assay [1]; 0.7 in [2]; 0.2 in [3]; 0.2 in assay [4]; 1.4 in assay [5]; 1.8 in assay [6]. Further, the OD450 was 2.8 in assay [7]; 3.1 in [8]; 3.2 in assay [9]; 3.2 in [10]; 3.2 in assay [11]; 3.2 in [12]. Besides, the OD450 in assay [13], in assay [14], in [15] and in [16] was 3.2 throughout.
On to “43D (BioLegend monoclonal murine anti-tau, 1-100; cat #816601) (antibody)”, for which the OD450 in assay [1] amounted to 0.7; in assay [2], 0.8; in assay [3] it was 0.3; in [4], 0.3; in assay [5], 1.7; in assay [6], 1.9. Also, the OD450 is 3 in assay [7]; 3.1 in assay [8]; 3.2 in assay [9]; 3.2 in assay [10]; 3.2 in [11]; 3.2 in assay [12]. Besides, the OD450 was determined as 3.2 in assay [13], 3.1 in assay [14], 3.2 in assay [15] and 3.1 in assay [16].
As for “Tau5 (anti-tau, 210-230; BioLegend cat #806401) (antibody)”, the OD450 in [17] worked out at 0.2 OD450; in assay [18], 0.6 OD450; in assay [19], 1.2 OD450; in [20], 2.6 OD450; in [21] it was 3.3 OD450; in assay [22], 3.3 OD450. The OD450 in assay [23] was determined as 3.3 OD450; in [24], 0.1 OD450.
Consider “Tau46 (anti-tau, 404-421; BioLegend cat #806601) (antibody)”, for which the OD450 in assay [17] came to 0.2 OD450; in assay [18], 0.4 OD450; in assay [19], 1 OD450; in [20], 2 OD450; in assay [21] it was 3 OD450; in [22], 3.2 OD450. For the same substance, the figures for the OD450 in assay [23] and in [24] were 3.2 OD450 and 0.1 OD450, respectively.
With “Tau5 (BioLegend monoclonal murine anti-tau, 210-230; cat #806401) (antibody)”, the OD450 worked out at 0.4 in assay [1]; 0.4 in assay [2]; 0.1 in assay [3]; 0.1 in assay [4]; 0.8 in assay [5]; 0.9 in assay [6]. Moreover, the OD450 in assay [7] was determined as 1.7; in assay [8], 2.1; in assay [9], 2.6; in assay [10], 2.9; in [11] it was 3.2; in [12], 3.2. The OD450 in assay [13], in assay [14], in [15] and in assay [16] was 3.2 each time.
In the case of “2G9.F10 (anti-tau, 157-168; BioLegend cat #824601) (antibody)”, the OD450 in assay [17] worked out at 0.1 OD450; in assay [18] it was 0.1 OD450; in assay [19], 0.2 OD450; in assay [20] it was 0.5 OD450; in assay [21], 0.9 OD450; in assay [22], 1.6 OD450. Also, the OD450 is 2.2 OD450 in assay [23] and 0 OD450 in assay [24].
Regarding “PHF-13 (BioLegend monoclonal murine anti-tau phospho Ser396; cat #829001) (antibody)”, the OD450 in assay [1] turned out to be 0; in [2] it was 0; in [3], 0; in assay [4], 0; in [5], 0.1; in assay [6], 0. Also, the OD450 was 0.1 in assay [7]; 0.1 in [8]; 0.3 in assay [9]; 0.3 in assay [10]; 0.6 in assay [11]; 0.7 in assay [12]. For the same substance, the OD450 in assay [13] was 1.2; in assay [14], 1.2; in assay [15] it was 1.9; in [16], 2.
Take “Tau46 (BioLegend monoclonal murine anti-tau, 404-421; cat #806601) (antibody)”: the OD450 came to 0.1 in [1]; 0 in assay [2]; 0 in assay [3]; 0 in [4]; 0.2 in [5]; 0.1 in assay [6]. For the same substance, the OD450 stood at 0.4 in [7]; 0.4 in assay [8]; 0.9 in [9]; 1 in assay [10]; 1.7 in [11]; 2 in [12]. Moreover, the OD450 in [13] worked out at 2.3; in assay [14], 2.6; in [15], 2.8; in assay [16] it was 2.9.
“43D (anti-tau, 1-100; BioLegend cat #816601) (antibody)”: the OD450 stood at 0.4 OD450 in [17]; 0.9 OD450 in assay [18]; 2 OD450 in [19]; 3 OD450 in [20]; 3.2 OD450 in [21]; 3.3 OD450 in assay [22]. Further, the results for the OD450 in [23] and in [24] were 3.2 OD450 and 0 OD450, respectively.
As for “Tau12 (BioLegend monoclonal murine anti-tau, 6-18; cat #806501) (antibody)”, the OD450 in assay [1] worked out at 1; in assay [2], 1; in assay [3], 0.4; in assay [4], 0.4; in assay [5], 2.2; in assay [6] it was 2.4. Also, the OD450 in [7], in assay [8], in [9], in assay [10], in assay [11] and in assay [12] was 3.2 throughout. The OD450 in assay [13] was found to be 3.2; in assay [14], 3.1; in [15], 3.2; in [16] it was 3.1.
In the case of “PHF-6 (BioLegend monoclonal murine anti-tau phospho Th231; cat #828901) (antibody)”, the OD450 in [1] was 0.2; in [2], 0.2; in assay [3], 0.1; in assay [4], 0; in assay [5] it was 0.4; in assay [6] it was 0.5. The OD450 in [7] turned out to be 1.1; in [8], 1.3; in assay [9], 1.9; in assay [10], 2.3; in assay [11] it was 2.7; in assay [12] it was 2.9. In addition, the OD450 in assay [13] came to 3; in [14] it was 3.1; in [15], 3.2; in assay [16], 3.1.
With “2G9.F10 (BioLegend monoclonal murine anti-tau, 157-168; cat #824601) (antibody)”, the OD450 in [1] stood at 0.1; in assay [2], 0.1; in assay [3], 0; in [4], 0; in assay [5] it was 0.3; in assay [6], 0.3. Besides, the OD450 was 0.7 in assay [7]; 0.9 in assay [8]; 1.6 in assay [9]; 2 in assay [10]; 2.4 in assay [11]; 2.8 in [12]. Further, the OD450 in assay [13] is 2.9; in assay [14] it was 3; in [15] it was 3.1; in [16], 3.1.

Source of the values: patent publication US20220339270A1.
